Source: US20110059888A1
*1 amine or outer side, *2 acyl side, *3 side chain or, on linkers, in order; H or OH if unused. [ ]: non-standard residue; d: D form. Ser(Me) = O-methylserine, COC[C@H](N[*:1])C(=O)[*:2]; Arg(Me) = CNC(=N)NCCC[C@H](N)C(=O)O; Ala(cPr) = N[C@@H](CC1CC1)C(=O)O; Hyp = O=C(O)[C@@H]1C[C@@H](O)CN1; 2Pal = N[C@@H](Cc1ccccn1)C(=O)O; 3Pal = N[C@@H](Cc1cccnc1)C(=O)O; 4Pal = N[C@@H](Cc1ccncc1)C(=O)O; Cha = N[C@@H](CC1CCCCC1)C(=O)O

B1: des(1)-Ac-[D-Tyr2,Hyp3,Thr5,Ser(Me)7,Arg(Me)9,Trp10]MS10 (peptide)
peptide: Ac-[dY][Hyp]NTF[Ser(Me)]L[Arg(Me)]W-NH2
SMILES: CNC(=N)NCCC[C@H](NC(=O)[C@H](CC(C)C)NC(=O)[C@H](COC)NC(=O)[C@H](Cc1ccccc1)NC(=O)[C@@H](NC(=O)[C@H](CC(N)=O)NC(=O)[C@@H]1C[C@@H](O)CN1C(=O)[C@@H](Cc1ccc(O)cc1)NC(C)=O)[C@@H](C)O)C(=O)N[C@@H](Cc1c[nH]c2ccccc12)C(N)=O
B2: des(1)-Ac-[D-Tyr2,Hyp3,Thr5,Phe6Ψ(COCH2)Gly7,Arg(Me)9,Trp10]MS10 (peptide)
peptide: Ac-[dY][Hyp]NTFGL[Arg(Me)]W-NH2
modifications: also: Phe5-Gly6 amide bond replaced by COCH2
B3: des(1)-Ac-[D-Tyr2,Hyp3,Thr5,Gly7Ψ(CH2NH)Leu8,Arg(Me)9,Trp10]MS10 (peptide)
peptide: Ac-[dY][Hyp]NTFGL[Arg(Me)]W-NH2
modifications: also: Gly6-Leu7 amide replaced by CH2NH
B4: des(1)-Ac-[D-Tyr2,Hyp3,Thr5,Arg(Me)9,Trp10]MS10 (peptide)
peptide: Ac-[dY][Hyp]NTFGL[Arg(Me)]W-NH2
B5: des(1)-Ac-[D-Tyr2,Hyp3,Thr5,Pya(4)6,Arg(Me)9,Trp10]MS10 (peptide)
peptide: Ac-[dY][Hyp]NT[4Pal]GL[Arg(Me)]W-NH2
SMILES: CNC(=N)NCCC[C@H](NC(=O)[C@H](CC(C)C)NC(=O)CNC(=O)[C@H](Cc1ccncc1)NC(=O)[C@@H](NC(=O)[C@H](CC(N)=O)NC(=O)[C@@H]1C[C@@H](O)CN1C(=O)[C@@H](Cc1ccc(O)cc1)NC(C)=O)[C@@H](C)O)C(=O)N[C@@H](Cc1c[nH]c2ccccc12)C(N)=O
B6: des(1)-Ac-[D-Tyr2,Hyp3,Thr5,Phe6Ψ(CH2O)Gly7,Arg(Me)9,Trp10]MS10 (peptide)
peptide: Ac-[dY][Hyp]NTFGL[Arg(Me)]W-NH2
modifications: also: Phe5-Gly6 amide bond replaced by CH2O
B7: des(1)-Ac-[D-Tyr2,Hyp3,Thr5,Phe6Ψ((S)CHOH-CH2)Gly7,Arg(Me)9,Trp10]MS10 (peptide)
peptide: Ac-[dY][Hyp]NTFGL[Arg(Me)]W-NH2
modifications: also: Phe5-Gly6 amide replaced by (S)CHOH-CH2
B8: des(1)-Ac-[D-Tyr2,Hyp3,Thr5,Phe6Ψ(CH2CH2)Gly7,Arg(Me)9,Trp10]MS10 (peptide)
peptide: Ac-[dY][Hyp]NTFGL[Arg(Me)]W-NH2
modifications: also: Phe5-Gly6 amide replaced by CH2CH2
B9: des(1)-Ac-[D-Tyr2,Hyp3,Thr5,Pya(3)6,Arg(Me)9,Trp10]MS10 (peptide)
peptide: Ac-[dY][Hyp]NT[3Pal]GL[Arg(Me)]W-NH2
SMILES: CNC(=N)NCCC[C@H](NC(=O)[C@H](CC(C)C)NC(=O)CNC(=O)[C@H](Cc1cccnc1)NC(=O)[C@@H](NC(=O)[C@H](CC(N)=O)NC(=O)[C@@H]1C[C@@H](O)CN1C(=O)[C@@H](Cc1ccc(O)cc1)NC(C)=O)[C@@H](C)O)C(=O)N[C@@H](Cc1c[nH]c2ccccc12)C(N)=O
B10: des(1)-Ac-[D-Tyr2,Hyp3,Thr5,Val7,Arg(Me)9,Trp10]MS10 (peptide)
peptide: Ac-[dY][Hyp]NTFVL[Arg(Me)]W-NH2
SMILES: CNC(=N)NCCC[C@H](NC(=O)[C@H](CC(C)C)NC(=O)[C@@H](NC(=O)[C@H](Cc1ccccc1)NC(=O)[C@@H](NC(=O)[C@H](CC(N)=O)NC(=O)[C@@H]1C[C@@H](O)CN1C(=O)[C@@H](Cc1ccc(O)cc1)NC(C)=O)[C@@H](C)O)C(C)C)C(=O)N[C@@H](Cc1c[nH]c2ccccc12)C(N)=O
B11: des(1)-Ac-[D-Tyr2,Hyp3,Thr5,Phe6Ψ((S)CHOH-(E)CH=)Gly7,Arg(Me)9,Trp10]MS10 (peptide)
peptide: Ac-[dY][Hyp]NTFGL[Arg(Me)]W-NH2
modifications: also: Phe5-Gly6 amide replaced by (S)CHOH-(E)CH=
B12: des(1)-Ac-[D-Tyr2,Hyp3,Thr5,Phe6Ψ((R)CHOH-(E)CH=)Gly7,Arg(Me)9,Trp10]MS10 (peptide)
peptide: Ac-[dY][Hyp]NTFGL[Arg(Me)]W-NH2
modifications: also: Phe5-Gly6 amide replaced by (R)CHOH-(E)CH=
B13: des(1)-Ac-[D-Tyr2,Hyp3,Thr5,Phe6Ψ((E)CH═CH)Gly7,Arg(Me)9,Trp10]MS10 (peptide)
peptide: Ac-[dY][Hyp]NTFGL[Arg(Me)]W-NH2
modifications: also: Phe5-Gly6 amide replaced by (E)CH=CH
B14: des(1)-Ac-[D-Tyr2,Glu3,Thr5,Cha6,Arg(Me)9,Trp10]MS10 (peptide)
peptide: Ac-[dY]ENT[Cha]GL[Arg(Me)]W-NH2
SMILES: CNC(=N)NCCC[C@H](NC(=O)[C@H](CC(C)C)NC(=O)CNC(=O)[C@H](CC1CCCCC1)NC(=O)[C@@H](NC(=O)[C@H](CC(N)=O)NC(=O)[C@H](CCC(=O)O)NC(=O)[C@@H](Cc1ccc(O)cc1)NC(C)=O)[C@@H](C)O)C(=O)N[C@@H](Cc1c[nH]c2ccccc12)C(N)=O
B15: des(1)-Ac-[D-Tyr2,Hyp3,Thr5,Pya(2)6,Arg(Me)9,Trp10]MS10 (peptide)
peptide: Ac-[dY][Hyp]NT[2Pal]GL[Arg(Me)]W-NH2
SMILES: CNC(=N)NCCC[C@H](NC(=O)[C@H](CC(C)C)NC(=O)CNC(=O)[C@H](Cc1ccccn1)NC(=O)[C@@H](NC(=O)[C@H](CC(N)=O)NC(=O)[C@@H]1C[C@@H](O)CN1C(=O)[C@@H](Cc1ccc(O)cc1)NC(C)=O)[C@@H](C)O)C(=O)N[C@@H](Cc1c[nH]c2ccccc12)C(N)=O
B16: des(1)-Ac-[D-Tyr2,Hyp3,Thr5,Ala(cPr)6,Arg(Me)9,Trp10]MS10 (peptide)
peptide: Ac-[dY][Hyp]NT[Ala(cPr)]GL[Arg(Me)]W-NH2
B17: des(1)-Ac-[D-Tyr2,Glu3,Thr5,Arg(Me)9,Trp10]MS10 (peptide)
peptide: Ac-[dY]ENTFGL[Arg(Me)]W-NH2
SMILES: CNC(=N)NCCC[C@H](NC(=O)[C@H](CC(C)C)NC(=O)CNC(=O)[C@H](Cc1ccccc1)NC(=O)[C@@H](NC(=O)[C@H](CC(N)=O)NC(=O)[C@H](CCC(=O)O)NC(=O)[C@@H](Cc1ccc(O)cc1)NC(C)=O)[C@@H](C)O)C(=O)N[C@@H](Cc1c[nH]c2ccccc12)C(N)=O

biological target: human OT7T175 (metastin receptor) (human) (UniProt Q969F8); experiment: cell-based or functional assay
UniProt Q969F8, sequence (Q969F8 whole entry L364H): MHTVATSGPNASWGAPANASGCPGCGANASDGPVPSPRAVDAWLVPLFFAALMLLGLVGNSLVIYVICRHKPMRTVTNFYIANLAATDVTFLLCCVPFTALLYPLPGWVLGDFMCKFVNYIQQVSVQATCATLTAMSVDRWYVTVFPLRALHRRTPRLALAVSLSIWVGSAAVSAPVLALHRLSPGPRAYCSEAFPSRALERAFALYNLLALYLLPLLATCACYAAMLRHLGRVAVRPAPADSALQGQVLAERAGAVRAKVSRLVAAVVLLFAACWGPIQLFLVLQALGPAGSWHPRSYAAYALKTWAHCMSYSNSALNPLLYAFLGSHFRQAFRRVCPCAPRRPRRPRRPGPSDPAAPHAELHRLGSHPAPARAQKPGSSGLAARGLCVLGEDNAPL

| Specific Activity (EC50 of test compound based on EC50 of Metastin (45-54); intracellular calcium, FLIPR) (ratio to EC50 of Metastin (45-54)) | Molecule |
| --- | --- |
| 0.3 | des(1)-Ac-[D-Tyr2,Hyp3,Thr5,Cha6,Arg(Me)9,Trp10]MS10 (peptide) |
| 1.5 | des(1)-Ac-[D-Tyr2,Hyp3,Thr5,Aib7,Arg(Me)9,Trp10]MS10 (peptide) |
| 0.5 | des(1)-Ac-[D-Tyr2,Hyp3,Thr5,Cha6,Nva8,Arg(Me)9,Trp10]MS10 (peptide) |
| 0.5 | des(1)-Ac-[D-Tyr2,Glu3,Thr5,Cha6,Ser(Me)8,Arg(Me)9,Trp10]MS10 (peptide) |
| 0.6 | des(1)-Ac-[D-Tyr2,Hyp3,Thr5,Cha6,Nle8,Arg(Me)9,Trp10]MS10 (peptide) |
| 0.6 | des(1)-Ac-[D-Tyr2,Hyp3,Thr5,Phe6Ψ(CH2CH2)AzaGly7,Arg(Me)9,Trp10]MS10 (peptide) |
| 0.8 | des(1)-Ac-[D-Tyr2,Hyp3,Thr5,Ser(Me)8,Arg(Me)9,Trp10]MS10 (peptide) |
| 0.4 | des(1)-Ac-[D-Tyr2,Pro(4F)3,Thr5,Cha6,Ala(cPr)8,Arg(Me)9,Trp10]MS10 (peptide) |
| 0.4 | des(1)-Ac-[D-Tyr2,Hyp3,Thr5,Gly7Ψ((E)CH═CH)Leu8,Trp10]MS10 (peptide) |
| 0.7 | des(1)-Ac-[D-Tyr2,Hyp3,Thr5,Nva8,Arg(Me)9,Trp10]MS10 (peptide) |
| 0.5 | des(1)-Ac-[D-Tyr2,Hyp3,Thr5,Cha6,Ala7,Arg(Me)9,Trp10]MS10 (peptide) |
| 1.4 | des(1)-Ac-[D-Tyr2,Hyp3,Thr5,Cha6,Leu(Me)8,Arg(Me)9,Trp10]MS10 (peptide) |
| 0.5 | des(1)-Ac-[D-Tyr2,Hyp3,Thr5,Cha6,Ser(Me)8,Arg(Me)9,Trp10]MS10 (peptide) |
| 0.6 | des(1)-Ac-[D-Tyr2,Hyp3,Thr5,Cha6,Gly7Ψ((E)CH═CH)Leu8,Trp10]MS10 (peptide) |
| 1.2 | des(1)-Ac-[D-Tyr2,Hyp3,Thr5,Gly7Ψ(CH2S)Leu8,Arg(Me)9,Trp10]MS10 (peptide) |
| 1.7 | des(1)-Ac-[D-Tyr2,Hyp3,Thr5,Cha6,Gly7Ψ(CH2S)Leu8,Arg(Me)9,Trp10]MS10 (peptide) |
| 0.5 | des(1)-Ac-[D-Tyr2,Hyp3,Alb4,Thr5,Cha6,Gly7Ψ((E)CH═CH)Leu8,Trp10]MS10 (peptide) |
| 1 | des(1)-Ac-[D-Tyr2,Hyp3,Thr5,Nal(2)6,Arg(Me)9,Trp10]MS10 (peptide) |

| Specific Activity (EC50 of test compound based on EC50 of Metastin (45-54); intracellular calcium, FLIPR) (ratio to EC50 of Metastin (45-54)) | Molecule |
| --- | --- |
| 0.4 | des(1)-Ac-[D-Tyr2,Glu3,Thr5,Cha6,Nva8,Arg(Me)9,Trp10]MS10 (peptide) |
| 1.2 | B1 |
| 1.1 | B2 |
| 2.9 | B3 |
| 1.2 | B4 |
| 0.9 | B5 |
| 0.5 | B6 |
| 1.2 | B7 |
| 1.3 | B8 |
| 0.9 | B9 |
| 1.7 | B10 |
| 1.7 | B11 |
| 1.4 | B12 |
| 0.7 | B13 |
| 0.6 | B14 |
| 1.2 | B15 |
| 1.9 | B16 |
| 0.5 | B17 |
